Laboratory results from the supplement of paper PMC12042874.
± gives the uncertainty stated by the source.

Test: amyloid nucleation score (Sup35N fusion, yeast selection) (log enrichment); library NNK1; higher = more nucleation; inactive = no reads after selection
How it was run: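 Using DiMSum, nucleation scores were taken as the log enrichment of output over input reads, centred on the mode score of non-aggregating sequences. The input and output reads came from Illumina sequencing of plasmid inserts, with sequences under 100 input reads excluded. The yeast were psi-negative, expressed Sup35N fused to peptides of 20 random codons, were induced with 100 μM copper sulfate for 24 hours, and were grown 7 days at 30°C on medium lacking adenine and uracil.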

Substance	amyloid nucleation score
KCLTLSCILDVCKNIVEEMI	0.047 ± 0.46
KCMEIILVLRVVRKWGSGGM	0.654 ± 0.97
KCSVCF	2.24 ± 0.35
KDHTWWALCFYIKIFELKVR	1.39 ± 0.73
KDRFMSIYLVSYWSGLCTGL	inactive
KDRMITPKPTVVTHLVVSYG	-0.23 ± 0.22
KDSFLMGGLFFMTAAWVSPR	1.54 ± 0.27
KDTQCHIARATRRGVRGNVF	-0.48 ± 1.1
KELCGLRGYTFYEQF	0.588 ± 0.74
KENQSIRFWVD	inactive
KFACLRWVICKYCLWV	-0.412 ± 0.49
KFFHLAIMWFTPSSPHKGTC	-0.496 ± 0.62
KFIDFERLFSLRGWSVCNER	0.889 ± 0.24
KFRDPYCKHRWAGLGKQSGD	0.052 ± 0.4
KFRSKLWNYFFACVEPATHP	-0.013 ± 0.72
KFVTVKTRQLKSAGASIVSG	-0.119 ± 0.69
KFVVMGWGYLTIRVVSVTDK	1.92 ± 0.64
KGFFNAITGDKIPRPSRDRR	0.174 ± 0.48
KGGSPQYNGVTSMWWDRKFD	-0.255 ± 0.38
KGHSANVYTAPLLCNNCHFF	6.703 ± 0.059
KGMYISWIVAVCS	0.411 ± 0.3
KGSSAMPL	inactive

Substance	amyloid nucleation score
KGWWKGLRARSQGPGVSDVW	-0.314 ± 0.57
KGYYDFRGVSLMVPVMFTMS	0.048 ± 0.38
KHQGNMTTINNKRAARLLGP	inactive
KHVGWSYG	0.779 ± 0.48
KICTYSRFC	0.848 ± 0.39
KILCWNIFLPYKGVRGRFGM	6.895 ± 0.053
KIRLQVNSFMFVTPWAHFMV	4.55 ± 0.052
KIRRGCMLLGQHVWTT	0.207 ± 0.35
KIRSPYNMMPMLTLGTSKGV	0.845 ± 0.61
KKRPRYRRWTS	0.578 ± 0.52
KLCQVRHVSWIMSCQRYKQD	0.058 ± 0.49
KLCRFCNRVCYCQ	-0.691 ± 1
KLCWASTRMMWRFYFLDCLD	0.146 ± 0.39
KLDNCGCGRGCEQLDVVQSQ	0.044 ± 0.53
KLHNILLWNCLVFLCVMYVW	inactive
KLILWGRLSANNFYYSFGFL	-0.214 ± 0.27
KLINCLGIVL	-0.92 ± 1.1
KLKINCMYN	2.03 ± 0.45
KLLDSSVVDSLRQHCEAGLR	0.075 ± 0.3
KLLHLVIVDELCFVRYSGLA	0.381 ± 0.81
KLQMGFIKMFAGQECFDVHA	inactive
KLSVGYRFWVLDSDFIVDDY	0.16 ± 0.23

Substance	amyloid nucleation score
KLVLLGNK	0.134 ± 0.5
KLVLYEVFSSKKKHIFLSHQ	0.586 ± 0.26
KLYNGLQHVQAGTLVMQ	0.46 ± 1.2
KMGYFE	0.915 ± 0.45
KMSAWQFGGHVLCNARMGYE	-0.112 ± 0.36
KMWIRCVIGVRMLYPFARCG	-0.138 ± 0.49
KNDYSYWL	-0.275 ± 0.65
KNKVTFKVG	0.22 ± 0.3
KPERICLWLVVKRYSMVHLW	0.253 ± 0.51
KQNNGFGWEYEAGGLHRKGA	-0.989 ± 2.7
KRFSSCLRRWAACNGESAAL	0.412 ± 0.45
KRIDDYAKFRC	inactive
KRLGWSSVFRLARVERVLRS	-0.929 ± 1.9
KRVLNLFGEESFAGMIWIDY	-0.125 ± 0.97
KSDLLNMRWVGYWFIVSSMR	0.099 ± 0.67
KSDVAARVCDER	0.526 ± 0.31
KSEYWHSCYVANSPYDYRTV	-0.422 ± 1.2
KSFYGNFRGFFNALNIYHSS	1.83 ± 0.28
KSLFVLVWTLLLPT	-0.223 ± 0.35
KSLMRTTMSCQSDYEDQKDV	0.883 ± 0.78
KSLQTETFTKTAATQKSELA	-0.3 ± 0.52
KSLSRFRVTNSKEYMSAMGT	-0.299 ± 0.26

Substance	amyloid nucleation score
KSMMDMSYLMEYIGI	-2.65 ± 2.4
KSVLQFETMGFVDLYFSFNL	5.49 ± 0.091
KSVPRKVFGAILDFLDLQLM	0.979 ± 0.73
KSWQFMSRGVSGWFWRLVPQ	0.743 ± 0.48
KSYVCGTLTFRLGSVHCVNM	7.025 ± 0.057
KTGFYGFMVGM	4.54 ± 0.063
KTRFLKYDNLSWTDKSNWVL	inactive
KVFRLILGGVSNKYT	0.228 ± 0.64
KVFSVHRHCQESVVGAVLCS	-0.371 ± 0.73
KVQIY	-0.968 ± 0.36
KVRMLNMVYKNLSDRD	0.884 ± 0.56
KVWSGCSAPQ	2.09 ± 0.43
KWCDMRGYGQRFRCGRMVHV	-0.727 ± 0.73
KWTGRGSYNDRLFVRRRMF	-0.073 ± 0.47
LAAVQTDMFISTLLECLDDK	1.08 ± 0.35
LADDHE	0.229 ± 0.93
LAEGASTL	-0.217 ± 1.1
LAHWHFNWSRILQCFYW	3.08 ± 0.095
LAIEENVRDQSGDYVWALIL	-0.122 ± 0.35
LALHEWLWLFDTFH	-0.097 ± 0.62
